This assay concerns the target receptor binding domain (RBD) of the SARS-CoV-2 Spike protein (SARS-CoV-2, UniProt P0DTC2 319-541).

B1: nanobody NM1230 (VHH)
VHH: QVQLVESGGGLVRPGGSLRLSCVGSGFTFSGYAMNWYRQAPGKALELVAGISNAGDLTHYEEPMKGRVAISRANDKNTVYLQMDDLKPEDTAVYRCHAPGVRVGTGERKDVWGQGAQVTVSS
One may read the IC50 as the concentration that gives 50% inhibition. Read a low IC50 as greater potency. For orientation: Kd means a measure of binding affinity in units of concentration. A higher Kd goes with a looser complex. The molecule B1 showed an IC50 of 2.12 nM and a Kd of 8.23 nM.

B2: nanobody NM1229 (VHH)
VHH: EVQLQESGGGLVQPGESLRLSCAASGRTHDWYTMGWFRQAPGKEREFVARINWSSGMTYYADSVKGRFTISRDNPKNTVYLQMNSLTPDDTAVYYCNVHPFTSPDYWGQGTRVTVSS
For B2, the IC50 was determined as 38 nM. That is a double-digit nanomolar value.

These data come from patent EP3970798A1 (NMI Naturwissenschaftliches und Medizinisches Institut an …, dated 2022).
